This is an account of results in patent publication US7005285.

B1: human p21-activated kinase 5 (PAK5), full length, expressed in 293 cells from pcDNA3.1 myc-his (protein)
chain: MFGKKKKKIEISGPSNFEHRVHTGFDPQEQKFTGLPQQWHSLLADTANRPKPMVDPSCITPIQLAPMKTIVRGNKPCKETSINGLLEDFDNISVTRSNSLRKESPPTPDQGASSHGPGHAEENGFITFSQYSSESDTTADYTTEKYREKSLYGDDLDPYYRGSHAAKQNGHVMKMKHGEAYYSEVKPLKSDFARFSADYHSHLDSLSKPSEYSDLKWEYQRASSSSPLDYSFQFTPSRTAGTSGCSKESLAYSESEWGPSLDDYDRRPKSSYLNQTSPQPTMRQRSRSGSGLQEPMMPFGASAFKTHPQGHSYNSYTYPRLSEPTMCIPKVDYDRAQMVLSPPLSGSDTYPRGPAKLPQSQSKSGYSSSSHQYPSGYHKATLYHHPSLQSSSQYISTASYLSSLSLSSSTYPPPSWGSSSDQQPSRVSHEQFRAALQLVVSPGDPREYLANFIKIGEGSTGIVCIGTEKHTGKQVAVKKMDLRKQQRRELLFNEVVIMRDYHHDNVVDMYSSYLVGDELWVVMEFLEGGALTDIVTHTRMNEEQIATVCLSVLRALSYLHNQGVIHRDIKSDSILLTSDGRIKLSDFGFCAQVSKEVPKRKSLVGTPYWMAPELISRLPYGTEVDIWSLGIMVIEMIDGEPPYFNEPPLQAMRRIRDSLPPRVKDLHKVSSVLRGFLDLMLVREPSQRATAQELLGHPFLKLAGPPSCIVPLMRQYRHH
For B1, the “kinase assay: incorporation of 32P from [gamma-32P]ATP into substrate, SDS gel and phosphoimager” value with myelin basic protein is “PAK5 is able to phosphorylate generic kinase substrates such as myelin basic protein and histone H1”; with histone H1 it was “PAK5 is able to phosphorylate generic kinase substrates such as myelin basic protein and histone H1”.
